Test [1] deals with recombinant nucleosome core particle formed from full-length Xenopus recombinant histones and mouse (Xenopus). The test can be described thus: negative-stain EM of single particles.
Test [2] addresses T1, Epl1 (residues 51–380, EPcA domain) of Piccolo v07 (S. cerevisiae, UniProt P43572 51-380).
T1 sequence: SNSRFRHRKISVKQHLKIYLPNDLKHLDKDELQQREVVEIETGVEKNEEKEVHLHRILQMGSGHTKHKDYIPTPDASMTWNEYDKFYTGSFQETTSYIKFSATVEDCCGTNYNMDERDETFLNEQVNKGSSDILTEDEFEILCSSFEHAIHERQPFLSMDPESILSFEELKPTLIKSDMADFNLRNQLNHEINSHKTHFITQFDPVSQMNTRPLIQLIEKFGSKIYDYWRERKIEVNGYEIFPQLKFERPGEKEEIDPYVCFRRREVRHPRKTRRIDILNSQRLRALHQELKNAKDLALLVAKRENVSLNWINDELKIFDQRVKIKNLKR
The test can be described thus: AUC.

“NuA4 histone acetyltransferase complex (from UniProt P43572;Q08649;P38806;Q06337;P38811;Q12432;P39995;P53911;P53201;P53930;P60010;P80428;P47128)”: in test [1], the percent of NuA4 particles bound to NCP is 5% and the stoichiometry N was determined as 1.

B1: Esa1 (residues 2–445), 6 × His-tagged, of Piccolo v07 (enzyme)
chain: SHDGKEEPGIAKKINSVDDIIIKCQCWVQKNDEERLAEILSINTRKAPPKFYVHYVNYNKRLDEWITTDRINLDKEVLYPKLKATDEDNKKQKKKKATNTSETPQDSLQDGVDGFSRENTDVMDLDNLNVQGIKDENISHEDEIKKLRTSGSMTQNPHEVARVRNLNRIIMGKYEIEPWYFSPYPIELTDEDFIYIDDFTLQYFGSKKQYERYRKKCTLRHPPGNEIYRDDYVSFFEIDGRKQRTWCRNLCLLSKLFLDHKTLYYDVDPFLFYCMTRRDELGHHLVGYFSKEKESADGYNVACILTLPQYQRMGYGKLLIEFSYELSKKENKVGSPEKPLSDLGLLSYRAYWSDTLITLLVEHQKEITIDEISSMTSMTTTDILHTAKTLNILRYYKGQHIIFLNEDILDRYNRLKAKKRRTIDPNRLIWKPPVFTASQLRFAW
As for B1, the “stoichiometry N” value in test [2] worked out at 1.

B2: Yng2 (residues 2–218, without PHD domain) of Piccolo v07 (domain or fragment)
chain: DPSLVLEQTIQDVSNLPSEFRYLLEEIGSNDLKLIEEKKKYEQKESQIHKFIRQQGSIPKHPQEDGLDKEIKESLLKCQSLQREKCVLANTALFLIARHLNKLEKNIALLEEDGVLAPVEEDGDMDSAAEASRESSVVSNSSVKKRRAASSSGSVPPTLKKKKTSRTSKLQNEIDVSSREKSVTPVSPSIEKKIARTKEFKNSRNGKGQNGSPENEE
For B2, the “stoichiometry N” value in test [2] was found to be 1.

For orientation: stoichiometry N means a count of units in the complex or per binding partner.

The record behind these values is PMC3210417 (Nature structural & molecular biology, 2011).
